Test results: US20240376151A1, “STAPLED PEPTIDES AND METHODS THEREOF” (FOG PHARMACEUTICALS, INC., priority 2022, published 2024)

Legend:
Expi293 cells [1] = assay: Measurement of the Cell Association of Helicons (mass spectrometry quantification in cells after treatment and wash); type: cell-based; settings: percentage of Helicons in cells after treatment and wash, 22 hours, n = 2, mean ± SD
Procedure: All samples were analyzed using mass spectrometry.

Expi293 cells [2] = assay: CellTiter-Glo cell health (ATP levels) during cell association assay; type: cell-based; settings: reflective of cell health, luminescence Tfinal (22 hours) / Tinitial
CUL4B = biological target: T1, CUL4B (Homo sapiens, UniProt Q13620, L520D/V516R); assay: Naive Library Presenter Screening (phage, NGS), CUL4B; type: binding; settings: for interaction data at Target Concentration 10: CUL4B target concentration 10 nM; for interaction data at Target Concentration 30: CUL4B target concentration 30 nM; for interaction data at Target Concentration 100: CUL4B target concentration 100 nM; for interaction data at Target Concentration 300: CUL4B target concentration 300 nM; for interaction data at Target Concentration 1000: CUL4B target concentration 1000 nM
T1 construct: GST-TEV (N, cleaved yes); made in house; host or cells: E. coli BL21 CodonPlus
T1 sequence (Q13620 206-557 V516R/L520D): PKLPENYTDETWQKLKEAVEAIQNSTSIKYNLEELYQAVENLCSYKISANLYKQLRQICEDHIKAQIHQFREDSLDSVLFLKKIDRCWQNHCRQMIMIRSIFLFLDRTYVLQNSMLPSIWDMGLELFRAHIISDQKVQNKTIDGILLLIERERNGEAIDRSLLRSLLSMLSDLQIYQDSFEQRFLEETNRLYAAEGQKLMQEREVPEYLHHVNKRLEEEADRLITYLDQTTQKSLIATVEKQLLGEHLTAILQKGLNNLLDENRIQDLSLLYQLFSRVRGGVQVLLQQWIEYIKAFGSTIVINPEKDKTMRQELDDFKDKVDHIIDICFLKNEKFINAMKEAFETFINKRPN

CUL1 = biological target: T2, CUL1 (Homo sapiens, UniProt Q13616, L371D/V367R); assay: Naive Library Presenter Screening (phage, NGS), CUL1; type: binding; settings: for interaction data at Target Concentration 10: CUL1 target concentration 10 nM; for interaction data at Target Concentration 30: CUL1 target concentration 30 nM; for interaction data at Target Concentration 100: CUL1 target concentration 100 nM; for interaction data at Target Concentration 300: CUL1 target concentration 300 nM; for interaction data at Target Concentration 1000: CUL1 target concentration 1000 nM
T2 construct: CUL1 (Uniprot ID: Q13616, residue 15-410, V367R/L371D); GST-TEV (N, cleaved yes); made in house; host or cells: E. coli BL21 CodonPlus
T2 sequence (Q13616 15-410 V367R/L371D): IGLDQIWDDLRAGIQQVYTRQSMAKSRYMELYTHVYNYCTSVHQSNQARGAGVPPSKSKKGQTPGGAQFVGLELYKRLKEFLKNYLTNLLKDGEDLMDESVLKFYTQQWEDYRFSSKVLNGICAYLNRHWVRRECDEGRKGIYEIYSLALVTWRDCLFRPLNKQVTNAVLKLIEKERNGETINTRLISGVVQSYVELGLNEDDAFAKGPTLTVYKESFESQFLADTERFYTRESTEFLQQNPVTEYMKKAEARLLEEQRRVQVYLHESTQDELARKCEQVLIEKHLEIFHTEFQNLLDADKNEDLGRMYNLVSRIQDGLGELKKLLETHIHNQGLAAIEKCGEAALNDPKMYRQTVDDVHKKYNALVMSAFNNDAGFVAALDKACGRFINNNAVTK

| interaction data at Target Concentration 10 (CUL4B) | interaction data at Target Concentration 30 (CUL4B) | interaction data at Target Concentration 100 (CUL4B) | interaction data at Target Concentration 300 (CUL4B) | interaction data at Target Concentration 1000 (CUL4B; first column) | interaction data at Target Concentration 1000 (CUL4B; second column) | interaction data at Target Concentration 10 (CUL1) | interaction data at Target Concentration 30 (CUL1) | interaction data at Target Concentration 100 (CUL1) | interaction data at Target Concentration 300 (CUL1) | interaction data at Target Concentration 1000 (CUL1; first column) | interaction data at Target Concentration 1000 (CUL1; second column) | Compound | Helicon in cells ± SD (%) (Expi293 cells [1]) | CellTiter-Glo fold change ± SD (Expi293 cells [2]) |
| --- | --- | --- | --- | --- | --- | --- | --- | --- | --- | --- | --- | --- | --- | --- |
| 0 | 10 | 0 | 6 | 11 | 2 |  |  |  |  |  |  | DPADRQCLFAAWYCEHT |  |  |
|  |  |  |  |  |  | 15 | 13 | 65 | 211 | 203 | 195 | DPAEAACDIAALMCIID |  |  |
|  |  |  |  |  |  | 4 | 32 | 183 | 247 | 517 | 300 | DPAEFVCDWAALACLVD |  |  |
|  |  |  |  |  |  | 14 | 19 | 340 | 937 | 1137 | 743 | DPAEQECDHAALWCIVA |  |  |
|  |  |  |  |  |  | 0 | 0 | 35 | 135 | 151 | 88 | DPAEQMCDIAAVWCLAH |  |  |
|  |  |  |  |  |  | 3 | 7 | 65 | 242 | 366 | 119 | DPAEVHCDMAALYCIIR |  |  |
| 4 | 15 | 139 | 319 | 251 | 0 |  |  |  |  |  |  | DPASRLCELAAWVCDSF |  |  |
| 0 | 0 | 1 | 31 | 9 | 0 |  |  |  |  |  |  | DPATRMCELAAWTCEVW |  |  |
| 0 | 0 | 15 | 31 | 18 | 0 |  |  |  |  |  |  | DPATTECILAAWICDRF |  |  |
|  |  |  |  |  |  | 0 | 0 | 57 | 36 | 57 | 151 | DPAYDWCDVAALFCLVE |  |  |

More lines, now with the values behind:

| Compound | interaction data at Target Concentration 10 (CUL4B) | interaction data at Target Concentration 30 (CUL4B) | interaction data at Target Concentration 100 (CUL4B) | interaction data at Target Concentration 300 (CUL4B) | interaction data at Target Concentration 1000 (CUL4B; first column) | interaction data at Target Concentration 1000 (CUL4B; second column) | interaction data at Target Concentration 10 (CUL1) | interaction data at Target Concentration 30 (CUL1) | interaction data at Target Concentration 100 (CUL1) | interaction data at Target Concentration 300 (CUL1) | interaction data at Target Concentration 1000 (CUL1; first column) | interaction data at Target Concentration 1000 (CUL1; second column) | Helicon in cells ± SD (%) (Expi293 cells [1]) | CellTiter-Glo fold change ± SD (Expi293 cells [2]) |
| --- | --- | --- | --- | --- | --- | --- | --- | --- | --- | --- | --- | --- | --- | --- |
| CCCC[C@H](NC(=O)[C@@H](NC(C)=O)C(C)C)C(=O)N[C@@H](CCC(=O)O)C(=O)N[C@]1(C)CCCCCCC=CCCC[C@@](C)(C(=O)N[C@@H](Cc2c[nH]cn2)C(=O)N[C@@H](Cc2ccc(O)cc2)C(=O)N[C@H](C(N)=O)C(C)C)NC(=O)[C@H]([C@@H](C)CC)NC(=O)[C@H](Cc2ccccc2)NC(=O)[C@H](C)NC(=O)[C@H](C)NC(=O)[C@H](CCC(=O)O)NC(=O)[C@H](Cc2ccc(O)cc2)NC1=O (single isomer, unassigned) [FP07855, Ac-Val-nLeu-Glu-R8-Tyr-Glu-Ala-Ala-Phe-Ile-S5-His-Tyr-Val-NH2] |  |  |  |  |  |  |  |  |  |  |  |  | 16.4 ± 0.6% | 1.2 ± 0.10 |
| CCCC[C@H](NC(=O)[C@@H](NC(C)=O)C(C)C)C(=O)N[C@@H](CCC(=O)O)C(=O)N[C@]1(C)CCCCCCC=CCCC[C@@](C)(C(=O)N[C@@H](Cc2c[nH]cn2)C(=O)N[C@@H](Cc2ccc(O)cc2)C(=O)N[C@H](C(N)=O)C(C)C)NC(=O)[C@H]([C@@H](C)CC)NC(=O)[C@H](Cc2ccccc2)NC(=O)[C@H](C)NC(=O)[C@H](C)NC(=O)[C@H](CCC(=O)O)NC(=O)[C@H](Cc2ccc(O)cc2)NC1=O (single isomer, unassigned) [FP07856, Ac-Val-nLeu-Glu-R8-Tyr-Glu-Ala-Ala-Phe-Ile-S5-His-Tyr-Val-NH2] |  |  |  |  |  |  |  |  |  |  |  |  | 15.5 ± 0.9% | 1.3 ± 0.12 |
| DPADRLCELAAWVCQSF | 0 | 0 | 0 | 48 | 9 | 0 |  |  |  |  |  |  |  |  |
| DPADRQCIFAAWMCEAF | 0 | 0 | 3 | 9 | 34 | 0 |  |  |  |  |  |  |  |  |
| DPADRWCELAAWICDEF | 0 | 0 | 0 | 6 | 17 | 0 |  |  |  |  |  |  |  |  |
| DPADRYCDMAAWVCERF | 1 | 1 | 15 | 248 | 340 | 0 |  |  |  |  |  |  |  |  |
| DPAEMQCDYAAILCIVR |  |  |  |  |  |  | 0 | 0 | 32 | 95 | 114 | 71 |  |  |
| DPAERHCQLAAWVCHQF | 0 | 0 | 0 | 99 | 29 | 0 |  |  |  |  |  |  |  |  |
| DPAIIQCDQAALWCVVT |  |  |  |  |  |  | 0 | 0 | 28 | 83 | 80 | 61 |  |  |
| DPAMLQCDMAALWCMVS |  |  |  |  |  |  | 1 | 3 | 77 | 64 | 143 | 126 |  |  |
| DPAMNHCVLAAWVCDTF | 0 | 0 | 6 | 37 | 9 | 0 |  |  |  |  |  |  |  |  |
| DPAQILCDLAALYCVVE |  |  |  |  |  |  | 0 | 7 | 61 | 73 | 111 | 119 |  |  |
| DPAQNDCEVAAFFCWLD |  |  |  |  |  |  | 1 | 1 | 233 | 428 | 586 | 468 |  |  |
| DPAQRACQFAAWICERF | 1 | 0 | 13 | 56 | 73 | 0 |  |  |  |  |  |  |  |  |
| DPASRMCEMAAWFCENY | 0 | 3 | 11 | 13 | 78 | 0 |  |  |  |  |  |  |  |  |
| DPATRHCIFAAWACDRF | 0 | 0 | 47 | 20 | 12 | 0 |  |  |  |  |  |  |  |  |
| DPAVMECDWAATICDIF |  |  |  |  |  |  | 0 | 2 | 154 | 402 | 477 | 419 |  |  |
| DPAYFACDIAALMCTVH |  |  |  |  |  |  | 0 | 2 | 131 | 135 | 403 | 120 |  |  |
